B1: 13-5G6-1D3 rAb: recombinant antibody product of US28-13-5G6-1D3 produced in HEK293-F cells (antibody)
heavy: EVKLVESGGGLVQPGGSLRLACATSGFTFTDYYMSWVRQPPGKALEWLGFIRSKANGYTTEYSASVKGRFTISRDNSQSILYLQMNTLRSEDSATYYCARDERRTAWLAYWGQGTLVTVSAAKTTPPSVYPLAPGSAAQTNSMVTLGCLVKGYFPEPVTVTWNSGSLSSGVHTFPAVLQSDLYTLSSSVTVPSSTWPSETVTCNVAHPASSTKVDKKIVPRDCGCKPCICTVPEVSSVFIFPPKPKDVLTITLTPKVTCVVVDISKDDPEVQFSWFVDDVEVHTAQTQPREEQFNSTFRSVSELPIMHQDWLNGKEFKCRVNSAAFPAPIEKTISKTKGRPKAPQVYTIPPPKEQMAKDKVSLTCMITDFFPEDITVEWQWNGQPAENYKNTQPIMDTDGSYFIYSKLNVQKSNWEAGNTFTCSVLHEGLHNHHTEKSLSHSPGK
light: DVLMTQTPLSLPVSLGDQASISCRSSQSIVHSNGNTYLDWYLQKPGQSPKLLIYKVSNRFSGVPDRFSGSGSGTDFTLKISRVEAEDLGVYYCFQGSHVPTWTFGGGTKLEIKRADAAPTVSIFPPSSEQLTSGGASVVCFLNNFYPKDINVKWKIDGSERQNGVLNSWTDQDSKDSTYSMSSTLTLTKDEYERHNSYTCEATHKTSTSPIVKSFNRNEC
B2: 13-5G6-1D3: mouse monoclonal IgG1 kappa antibody against US28 ECD3; VH SEQ ID NO: 12, VL SEQ ID NO: 18 (antibody, V domains shown)
VH: EVKLVESGGGLVQPGGSLRLACATSGFTFTDYYMSWVRQPPGKALEWLGFIRSKANGYTTEYSASVKGRFTISRDNSQSILYLQMNTLRSEDSATYYCARDERRTAWLAYWGQGTLVTVSA
VL: DVLMTQTPLSLPVSLGDQASISCRSSQSIVHSNGNTYLDWYLQKPGQSPKLLIYKVSNRFSGVPDRFSGSGSGTDFTLKISRVEAEDLGVYYCFQGSHVPTWTFGGGTKLEIK
modifications: Mature form of VH sequence of 1D3, without the leader sequence; Mature form of VL sequence of 1D3, without the leader sequence

Assays:
[1] = biological target: T1, US28 protein on CHO-US28-A1 cells (Human cytomegalovirus, UniProt P69332, D170N/D19A); test: Flow cytometry (FACS) surface binding to CHO-US28-A1 cells; set-up: species or system human cytomegalovirus (HCMV); details: recombinant antibody (rAb), FIG. 7
T1 construct: expressed in transfected cells; host or cells: CHO-K1 (vector pCDH-EF1a-MCS)
Description: FIG. 2. Flowcytometry analysis showing surface binding of the US28-13-5G6-1D3 antibody clone on CHO-US28-A1 cells. From the left, blank control, 2nd antibody control and clone US28-13-5G6-1D3 Ab binding on the surface of the CHO-US28-A1 cells.
FIG. 3. The positive surface binding of the clone US28-13-5G6-1D3 on CHO-US28-A1 cells was further validated by gradient dilution in FACS analysis. From the left, the clone US28-13-5G6-1D3 Ab surface binding to the CHO-US28-A1 cells in dilutions 1:20, 1:50, 1:200 (w/v).
FIG. 4. The positive surface binding of the clone US28-13-5G6-1D3 on CHO-US28-A1 cells was compared with the US28 negative CHO control cells. The clone US28-13-5G6-1D3 Ab bound 15-fold more to the surface of the US28 positive CHO-US28-A1 cells than to the US28 negative CHO cells in 1:50 (w/v).
FIG. 7. […] The surface binding of the 13-5G6-1D3 rAb to CHO cells was only measured in 1:10 dilution (w/v) and was 0.77% after removing the binding to blank and anti-mouse IgG-Alexa 488 secondary Ab controls. […]
In a further embodiment, it is preferred that a binding molecule of the present invention binds preferentially to US28-expressing cells (such as CHO cells engineered to express US28) compared to its binding of US28-negative cells (such as wildtype CHO cells), for example, at a 1:50 (w/v) dilution, for example as determined by flow cytometry assay. […]

pancreatic tissue = test: IHC on pancreatic tissues; set-up: species or system human
Description: FIG. 20. Some pancreatic tissues were studied to exclude general off-target binding of the 28-13-5G6-1D3 to this tissue type. […] The HCMV ISH is negative indicating absence of viral HCMV DNA in the normal pancreatic tissue sample. […] Thus, the same sample is positive for both HCMV proteins US28 and IE and HCMV DNA but negative for the negative control IgG indicating specific antibody binding. The US28 protein staining is cytoplasmic as expected, the IE protein is mostly located in the cell nucleus as expected since it is a nuclear protein. […] A colour version of FIG. 20 is also provided.

Molecule	fold more surface binding on CHO-US28-A1 cells than to normal CHO cells [1] [fold]	IHC staining of normal pancreatic tissue (pancreatic tissue; HCMV ISH negative sample)	IHC staining of pancreatic tissue sample from another patient (pancreatic tissue; HCMV ISH positive sample)
B1	> 21		
B2		negative staining	positive
